{"source": "paper PMC5593754", "origin": "cited, not measured here", "biological_target": "Glu97 (UniProt position 97, WARMAEWLCTC)", "assay": "UV-vis", "settings": "unphotolyzed (dark) state, protonated Schiff base", "data": [{"substance": "Anion channelrhodopsin 1 (GtACR1) S97E mutant (Guillardia theta; S97E)", "values": [{"measurement": "pKa", "result": "∼8"}]}]}
